According to article PMC5349899 (Oncotarget, 2016):

T1: TGF-β2
T1 sequence (P61812 303-414, species assumed, looked up): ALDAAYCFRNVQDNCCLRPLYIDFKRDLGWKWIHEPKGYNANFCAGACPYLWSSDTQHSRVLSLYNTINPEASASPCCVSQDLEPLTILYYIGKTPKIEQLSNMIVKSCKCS

B1: bivalent TGF-β receptor trap ER (BGE-RII) (other)
chain: GPEPSTRCELSPINASHPVQALMESFTVLSGCASRGTTGLPREVHVLNLRSTDQGPGQRQREVTLHLNPIASVHTHHKPIVFLLNSPQPLVWHLKTERLAAGVPRLFLVSEGSVVQFPSGNFSLTAETEERNFPQENEHLLRWAQKEYGAVTSFTELKIARNIYIKVGEDQVFPPTCNIGKNFLSLNYLAEYLQPKAAEGCVLPSQPHEKEVHIIELITPSSNPYSAFQVDIIVDIRPAQEDPEVVKNLVLILKCKKSVNWVIKSFDVKGNLKVIAPNSIGFGKESERSMTMTKLVRDDIPSTQENLMKWALDNGYRPVTSYTMAPVANRFHLRLENNEEMRDEEVHTIPPELRILLDPDNGAVKFPQLCKFCDVRFSTCDNQKSCMSNCSITSICEKPQEVCVAVWRKNDENITLETVCHDPKLPYHDFILEDAASPKCIMKEKKKPGETFFMCSCSSDECNDNIIFSEEYNTSNPD
modifications: N-linked glycans (as isolated, glycosylated)
B2: trivalent TGF-β receptor trap RER (RII-BGE-RII) (other)
chain: NGAVKFPQLCKFCDVRFSTCDNQKSCMSNCSITSICEKPQEVCVAVWRKNDENITLETVCHDPKLPYHDFILEDAASPKCIMKEKKKPGETFFMCSCSSDECNDNIIFSEEYNTSNPDGPEPSTRCELSPINASHPVQALMESFTVLSGCASRGTTGLPREVHVLNLRSTDQGPGQRQREVTLHLNPIASVHTHHKPIVFLLNSPQPLVWHLKTERLAAGVPRLFLVSEGSVVQFPSGNFSLTAETEERNFPQENEHLLRWAQKEYGAVTSFTELKIARNIYIKVGEDQVFPPTCNIGKNFLSLNYLAEYLQPKAAEGCVLPSQPHEKEVHIIELITPSSNPYSAFQVDIIVDIRPAQEDPEVVKNLVLILKCKKSVNWVIKSFDVKGNLKVIAPNSIGFGKESERSMTMTKLVRDDIPSTQENLMKWALDNGYRPVTSYTMAPVANRFHLRLENNEEMRDEEVHTIPPELRILLDPDNGAVKFPQLCKFCDVRFSTCDNQKSCMSNCSITSICEKPQEVCVAVWRKNDENITLETVCHDPKLPYHDFILEDAASPKCIMKEKKKPGETFFMCSCSSDECNDNIIFSEEYNTSNPD
modifications: N-linked glycans (as isolated, glycosylated)

Target: T1, TGF-β2
Assay: cell-based or functional assay

Binder | IC50 of inhibition of PAI-1 luciferase reporter activity in Mv1Lu mink lung epithelial cells induced with 20 pM TGF-β2 [pM]
B1 | 1200
B2 | 70
